In one series the test system is biotinyl-Trp-oxazolone. The series is described as follows: self-aminoacylation, catalytic enhancement (BWO) (fold over background); higher = more active; k-Seq, kA / k0A0; sequences stand for … in GGGAAUGGAUCCACAUCUACGAAUUC…UUCACUGCAGACUUGACGAAGCUG
Summed up: (§1)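 Mutagenized RNA pools (0.43 μM; 21-nt variable region) were treated with 2–1250 μM of each biotinyl-aminoacyl-oxazolone. Conditions were 50 μL HEPES/NaCl/KCl/MgCl2/CaCl2 buffer, 5% acetonitrile, pH 6.9–7.0, room temperature, 90 minutes. Catalytic enhancement, the median kA relative to the uncatalyzed rate, was derived from streptavidin capture, qPCR and Illumina sequencing.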

In a further series the test system is biotinyl-Val-oxazolone. Briefly: self-aminoacylation, catalytic enhancement (BVO) (fold over background); higher = more active; k-Seq, kA / k0A0; sequences stand for … in GGGAAUGGAUCCACAUCUACGAAUUC…UUCACUGCAGACUUGACGAAGCUG
Summed up:
as §1

The next series deals with biotinyl-Met-oxazolone. Briefly: self-aminoacylation, catalytic enhancement (BMO) (fold over background); higher = more active; k-Seq, kA / k0A0; sequences stand for … in GGGAAUGGAUCCACAUCUACGAAUUC…UUCACUGCAGACUUGACGAAGCUG
Summed up: as §1

The subject of a further series is biotinyl-Leu-oxazolone. The series is described as follows: self-aminoacylation, catalytic enhancement (BLO) (fold over background); higher = more active; k-Seq, kA / k0A0; sequences stand for … in GGGAAUGGAUCCACAUCUACGAAUUC…UUCACUGCAGACUUGACGAAGCUG
In outline: as §1

The subject of a further series is biotinyl-Phe-oxazolone. The series is described as follows: self-aminoacylation, catalytic enhancement (BFO) (fold over background); higher = more active; k-Seq, kA / k0A0; sequences stand for … in GGGAAUGGAUCCACAUCUACGAAUUC…UUCACUGCAGACUUGACGAAGCUG
In outline:
as §1

A further series concerns biotinyl-Ile-oxazolone. The series is described as follows: self-aminoacylation, catalytic enhancement (BIO) (fold over background); higher = more active; k-Seq, kA / k0A0; sequences stand for … in GGGAAUGGAUCCACAUCUACGAAUUC…UUCACUGCAGACUUGACGAAGCUG
Summed up:
as §1

This sample holds only a part of the variants without activity.

Take “AUUCACUUAGGUUAUCGGGUG [Fam2.2 aminoacylation ribozyme variant]”: the self-aminoacylation in the series with biotinyl-Trp-oxazolone turned out to be 3.68; with biotinyl-Val-oxazolone it was 2.5; in the series on biotinyl-Met-oxazolone, 3.33; in the series with biotinyl-Leu-oxazolone, 4.03; in the series on biotinyl-Phe-oxazolone it was 18.6; with biotinyl-Ile-oxazolone it was 2.37.

On to “CCACACUUCAAGCGAGCGGUC [Fam1B.1 aminoacylation ribozyme variant]”, for which the self-aminoacylation with biotinyl-Trp-oxazolone amounted to 0.744; with biotinyl-Val-oxazolone, 1.11; in the series with biotinyl-Met-oxazolone, 0.603; in the series on biotinyl-Leu-oxazolone, 0.93; with biotinyl-Phe-oxazolone, 0.929; with biotinyl-Ile-oxazolone, 0.983.

Take “UUUCACCUAGGUCAUCGAGUG [Fam2.2 aminoacylation ribozyme variant]”: the self-aminoacylation stood at 4.82 with biotinyl-Trp-oxazolone; 4.45 with biotinyl-Val-oxazolone; 7.16 with biotinyl-Met-oxazolone; 9.37 in the series with biotinyl-Leu-oxazolone; 16.4 with biotinyl-Phe-oxazolone; 5.72 in the series with biotinyl-Ile-oxazolone.

For the sequence “AUUCCCCUAGGUCAUCGUGUG [Fam2.2 aminoacylation ribozyme variant]”, the self-aminoacylation was found to be 4.05 in the series with biotinyl-Trp-oxazolone; 4.25 in the series on biotinyl-Val-oxazolone; 3.02 in the series on biotinyl-Met-oxazolone; 4.37 in the series with biotinyl-Leu-oxazolone; 20.7 in the series on biotinyl-Phe-oxazolone; 3.28 in the series on biotinyl-Ile-oxazolone.

“AUUCAGCUAGGUCAUGGGGUG [Fam2.2 aminoacylation ribozyme variant]”: the self-aminoacylation in the series on biotinyl-Trp-oxazolone is 3.72; with biotinyl-Val-oxazolone, 2.98; in the series on biotinyl-Met-oxazolone, 3.03; in the series with biotinyl-Leu-oxazolone it was 2.94; with biotinyl-Phe-oxazolone it was 17.8; in the series with biotinyl-Ile-oxazolone, 2.74.

For the sequence “AUAACCCUAGUCAUCGAGUGA [Fam2.1 aminoacylation ribozyme variant]”, the self-aminoacylation in the series on biotinyl-Trp-oxazolone was determined as 6.64; with biotinyl-Val-oxazolone, 2.97; in the series with biotinyl-Met-oxazolone, 5.44; in the series with biotinyl-Leu-oxazolone it was 5.25; in the series with biotinyl-Phe-oxazolone it was 5.43; in the series with biotinyl-Ile-oxazolone, 2.68.

Turning to “CUAUUUCAAACAUUCGGUCUG [Fam1A.1 aminoacylation ribozyme variant]”, the self-aminoacylation with biotinyl-Trp-oxazolone came to 1.16; in the series on biotinyl-Val-oxazolone, 1.3; with biotinyl-Met-oxazolone, 1.3; with biotinyl-Leu-oxazolone, 1.16; with biotinyl-Phe-oxazolone, 0.835; with biotinyl-Ile-oxazolone, 1.18.

In the case of “AACUUUGCUAAUAGUCGCAAA [Fam3.1 aminoacylation ribozyme variant]”, the self-aminoacylation in the series on biotinyl-Trp-oxazolone worked out at 2.36; with biotinyl-Val-oxazolone, 2.31; in the series on biotinyl-Met-oxazolone, 3.32; with biotinyl-Leu-oxazolone it was 3.39; in the series on biotinyl-Phe-oxazolone, 13.6; in the series with biotinyl-Ile-oxazolone it was 2.8.

On to “ACACACUUCAAGCAACCGGUC [Fam1B.1 aminoacylation ribozyme variant]”, for which the self-aminoacylation with biotinyl-Trp-oxazolone was determined as 1.13; with biotinyl-Val-oxazolone, 1.54; with biotinyl-Met-oxazolone, 1.51; in the series with biotinyl-Leu-oxazolone, 1.17; with biotinyl-Phe-oxazolone, 1.43; with biotinyl-Ile-oxazolone it was 1.18.

Turning to “AUUCAGCUAAGUCAUCGGGUG [Fam2.2 aminoacylation ribozyme variant]”, the self-aminoacylation was 2.81 with biotinyl-Trp-oxazolone; 2.96 in the series on biotinyl-Val-oxazolone; 3 in the series with biotinyl-Met-oxazolone; 3.99 in the series with biotinyl-Leu-oxazolone; 24.6 with biotinyl-Phe-oxazolone; 2.96 in the series with biotinyl-Ile-oxazolone.

“AUUCACCUAUGCCAUCGGGUG [Fam2.2 aminoacylation ribozyme variant]”: the self-aminoacylation with biotinyl-Trp-oxazolone amounted to 3.42; in the series on biotinyl-Val-oxazolone, 1.98; in the series with biotinyl-Met-oxazolone it was 2.85; in the series with biotinyl-Leu-oxazolone, 3.21; in the series with biotinyl-Phe-oxazolone, 18.9; in the series on biotinyl-Ile-oxazolone it was 1.5.

For “CUUACCCUGGUCAUGGAGUGA [Fam2.1 aminoacylation ribozyme variant]”, the self-aminoacylation was 4.01 in the series with biotinyl-Trp-oxazolone; 2.21 with biotinyl-Val-oxazolone; 3.59 with biotinyl-Met-oxazolone; 3.74 in the series with biotinyl-Leu-oxazolone; 10.1 with biotinyl-Phe-oxazolone; 2.16 in the series with biotinyl-Ile-oxazolone.

Turning to “CUGCUUCAAACAAUCGGCCUG [Fam1A.1 aminoacylation ribozyme variant]”, the self-aminoacylation with biotinyl-Trp-oxazolone is 162; with biotinyl-Val-oxazolone it was 3.35; in the series with biotinyl-Met-oxazolone, 3.69; in the series on biotinyl-Leu-oxazolone, 6.94; in the series on biotinyl-Phe-oxazolone, 449; in the series on biotinyl-Ile-oxazolone, 3.07.

On to “AAGUUUGCUAAUAGUUGCAAU [Fam3.1 aminoacylation ribozyme variant]”, for which the self-aminoacylation with biotinyl-Trp-oxazolone was 1.29; with biotinyl-Val-oxazolone it was 1.31; with biotinyl-Met-oxazolone, 1.15; with biotinyl-Leu-oxazolone, 0.88; in the series on biotinyl-Phe-oxazolone, 1.25; in the series on biotinyl-Ile-oxazolone it was 1.26.

Regarding “CUACUUCAAACACGCGGUCUG [Fam1A.1 aminoacylation ribozyme variant]”, the self-aminoacylation in the series with biotinyl-Trp-oxazolone is 1.74; in the series with biotinyl-Val-oxazolone it was 1.36; in the series with biotinyl-Met-oxazolone, 1.64; in the series on biotinyl-Leu-oxazolone it was 1.42; in the series with biotinyl-Phe-oxazolone, 0.711; in the series on biotinyl-Ile-oxazolone it was 1.61.

Take “AAGUUUGCUAAUAGUCGCGGG [Fam3.1 aminoacylation ribozyme variant]”: the self-aminoacylation in the series on biotinyl-Trp-oxazolone amounted to 4.82; in the series on biotinyl-Val-oxazolone, 3.77; in the series on biotinyl-Met-oxazolone, 4.13; in the series with biotinyl-Leu-oxazolone, 4.5; in the series with biotinyl-Phe-oxazolone it was 19.6; in the series with biotinyl-Ile-oxazolone, 4.43.

As for “CUACUUCAAACAAACGGUCGG [Fam1A.1 aminoacylation ribozyme variant]”, the self-aminoacylation in the series on biotinyl-Trp-oxazolone worked out at 0.585; in the series on biotinyl-Val-oxazolone, 0.944; with biotinyl-Met-oxazolone it was 0.726; in the series on biotinyl-Leu-oxazolone it was 0.809; with biotinyl-Phe-oxazolone, 0.694; in the series with biotinyl-Ile-oxazolone it was 1.05.

For the sequence “CUACUUAAAACAAGCGGUCUG [Fam1A.1 aminoacylation ribozyme variant]”, the self-aminoacylation is 0.982 in the series on biotinyl-Trp-oxazolone; 0.902 in the series with biotinyl-Val-oxazolone; 0.926 with biotinyl-Met-oxazolone; 0.836 with biotinyl-Leu-oxazolone; 0.744 in the series with biotinyl-Phe-oxazolone; 1.04 with biotinyl-Ile-oxazolone.

Turning to “CACUUUGCUAAUAGUCGCAAG [Fam3.1 aminoacylation ribozyme variant]”, the self-aminoacylation in the series on biotinyl-Trp-oxazolone worked out at 2.22; in the series on biotinyl-Val-oxazolone it was 1.01; with biotinyl-Met-oxazolone it was 1.32; with biotinyl-Leu-oxazolone it was 1.38; in the series on biotinyl-Phe-oxazolone, 0.947; with biotinyl-Ile-oxazolone, 1.41.

Take “CCACACGUCAAGCCAUCGGUC [Fam1B.1 aminoacylation ribozyme variant]”: the self-aminoacylation worked out at 1.21 in the series on biotinyl-Trp-oxazolone; 2.45 with biotinyl-Val-oxazolone; 1.58 with biotinyl-Met-oxazolone; 1.48 in the series on biotinyl-Leu-oxazolone; 1.11 with biotinyl-Phe-oxazolone; 1.34 in the series with biotinyl-Ile-oxazolone.

For the sequence “AUUCACCUAGGUAUUCGGGUG [Fam2.2 aminoacylation ribozyme variant]”, the self-aminoacylation is 3.35 in the series with biotinyl-Trp-oxazolone; 2.59 in the series with biotinyl-Val-oxazolone; 3.34 with biotinyl-Met-oxazolone; 5.02 in the series with biotinyl-Leu-oxazolone; 21.8 with biotinyl-Phe-oxazolone; 2.81 with biotinyl-Ile-oxazolone.

On to “CUCCUUCAAACAAUCGCUCUG [Fam1A.1 aminoacylation ribozyme variant]”, for which the self-aminoacylation was found to be 2.01 in the series on biotinyl-Trp-oxazolone; 0.666 with biotinyl-Val-oxazolone; 0.531 with biotinyl-Met-oxazolone; 0.78 with biotinyl-Leu-oxazolone; 2.77 with biotinyl-Phe-oxazolone; 0.73 with biotinyl-Ile-oxazolone.

Take “AAGUUUUCUAAUCGUCGCAAG [Fam3.1 aminoacylation ribozyme variant]”: the self-aminoacylation in the series on biotinyl-Trp-oxazolone amounted to 1.65; with biotinyl-Val-oxazolone, 1.69; with biotinyl-Met-oxazolone, 1.68; in the series with biotinyl-Leu-oxazolone, 1.79; in the series with biotinyl-Phe-oxazolone, 2.56; with biotinyl-Ile-oxazolone, 1.75.

For “AGUGCCCUGGUCAUCGAGUGA [Fam2.1 aminoacylation ribozyme variant]”, the self-aminoacylation with biotinyl-Trp-oxazolone was 13.6; in the series on biotinyl-Val-oxazolone, 5.79; in the series on biotinyl-Met-oxazolone, 12.5; in the series on biotinyl-Leu-oxazolone it was 14.5; with biotinyl-Phe-oxazolone, 67.6; with biotinyl-Ile-oxazolone, 6.36.

Turning to “CUACAAUUCAAGCAAUCGGUC [Fam1B.1 aminoacylation ribozyme variant]”, the self-aminoacylation in the series on biotinyl-Trp-oxazolone was 1.61; in the series with biotinyl-Val-oxazolone, 0.779; in the series with biotinyl-Met-oxazolone, 0.819; with biotinyl-Leu-oxazolone it was 0.75; with biotinyl-Phe-oxazolone, 2.71; with biotinyl-Ile-oxazolone, 0.902.

These data come from the supplement of paper PMC9233669.
